# Assay results published in publication PMC3605417, “An Archaeal Homolog of Proteasome Assembly Factor Functions as a Proteasome Activator” (PLoS ONE, 2013).
# B1: His6-PbaB, Pyrococcus furiosus (natural protein, UniProt Q8U1R3 1-280, looked up)
# chain: MEEGGTRNREEGKMKETTIVVYERPDIYDPIFIEGLPGIGLVGKLAAEHLIQELKAKKFAELYSPHFMHQVLIRKNSVVELMKNEFYYWKSPDDEHRDLIIVTGDTQVPPTDSYGHFEVAGKMLDFVQEFGTREIITMGGYQVPEIQGEPRVLAAVTHEDLIEYYKSKLEGCSVEVIWREDEGGAIVGAAGLLLGIGKLRGMFGISLLGESLGYIVDAKAAKAVLSAVTKILGLEIDMTALDERAKETEEILRKVEEMQRAMMEQVTPKLPHEEEDRGYL
# notes: PbaB, Pyrococcus furiosus, locus PF1142, residues 1-280; pET-28b (NdeI/XhoI); Used in SPR (immobilised), ultracentrifugation, electron tomography and the chaperone assay; also called His6-tagged PbaB; PF1142; source: E. coli BL21(DE3), purified (Ni2+-chelating Sepharose, HiTrap Q HP, Superdex 200); not shown: His6, N-terminal, kept
# Assays:
# [1] = target: the molecule itself; assay: AUC; sedimentation velocity, 20 μM His6-tagged PbaA or PbaB, 150 mM sodium phosphate (pH 7.5), 100 mM NaCl, 38,000 rpm, 20°C; continuous c(s) distribution (SEDFIT)
# [2] = target: T1, His6-tagged wild-type 20S proteasome (αβ1 form), Pyrococcus furiosus (Pyrococcus furiosus, UniProt Q8U0L6 1-260; Q8U4C9 1-196); assay: cell-based or functional assay
# T1 sequence (looked up) 1: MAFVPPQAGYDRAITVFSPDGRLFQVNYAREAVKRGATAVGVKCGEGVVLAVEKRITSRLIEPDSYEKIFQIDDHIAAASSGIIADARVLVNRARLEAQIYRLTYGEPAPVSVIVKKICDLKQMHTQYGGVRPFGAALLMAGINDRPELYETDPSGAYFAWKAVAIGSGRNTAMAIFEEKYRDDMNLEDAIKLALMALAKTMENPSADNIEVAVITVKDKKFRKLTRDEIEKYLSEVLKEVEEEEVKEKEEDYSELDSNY
# T1 sequence (looked up) 2: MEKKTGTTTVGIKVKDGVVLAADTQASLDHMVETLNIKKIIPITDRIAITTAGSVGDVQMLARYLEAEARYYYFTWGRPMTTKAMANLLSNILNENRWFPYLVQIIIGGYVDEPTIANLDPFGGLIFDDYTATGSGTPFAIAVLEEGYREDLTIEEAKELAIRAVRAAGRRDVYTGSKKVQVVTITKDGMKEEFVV
# [3] = target: T2, non-tagged mature 20S proteasome, inactive mutant (α + β1^NΔ6/T7A), Pyrococcus furiosus (Pyrococcus furiosus, UniProt Q8U0L6 1-260; Q8U4C9 7-196, T7A); assay: SPR; Biacore T100, Sensor Chip NTA, 25°C; His6-tagged PbaB (wild type or CΔ3) immobilised; non-tagged mature (18.8-300 nM) or immature (18.5-296 nM) 20S proteasome or α subunit ring (15.4-246 nM) injected; 10 mM HEPES (pH 7.5), 150 mM NaCl, 0.05% Tween20; 10 μl/min; conditions: both partners purified
# T2 construct: proteasome α subunit PsmA, Pyrococcus furiosus, locus PF1571, residues 1-260; proteasome β subunit 1 PsmB1, Pyrococcus furiosus, locus PF0159 (residues 1-196); NΔ6: the six N-terminal (propeptide) residues removed; non-tagged version; source: E. coli BL21(DE3), co-expressed, purified (heat precipitation at 85°C, HiTrap Q HP, Sephacryl S-400); copies: 14 + 14
# T2 sequence (looked up) 1: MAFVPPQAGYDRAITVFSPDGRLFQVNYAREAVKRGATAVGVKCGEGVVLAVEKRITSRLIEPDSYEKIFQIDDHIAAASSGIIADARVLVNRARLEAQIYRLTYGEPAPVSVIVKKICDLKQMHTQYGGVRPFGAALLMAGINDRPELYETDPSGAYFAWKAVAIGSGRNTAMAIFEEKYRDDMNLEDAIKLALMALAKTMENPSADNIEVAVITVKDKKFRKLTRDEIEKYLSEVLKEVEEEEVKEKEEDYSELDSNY
# T2 sequence (looked up) 2: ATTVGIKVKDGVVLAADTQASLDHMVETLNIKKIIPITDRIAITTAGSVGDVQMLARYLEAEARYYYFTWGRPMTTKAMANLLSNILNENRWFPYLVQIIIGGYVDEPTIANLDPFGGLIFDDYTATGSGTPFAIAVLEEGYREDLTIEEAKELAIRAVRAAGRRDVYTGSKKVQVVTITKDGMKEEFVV
# [4] = target: T3, immature 20S proteasome retaining the β subunit propeptide, inactive mutant (α + β1^T7A), Pyrococcus furiosus (Pyrococcus furiosus, UniProt Q8U0L6 1-260; Q8U4C9 1-196, T7A); assay: as above; conditions: both partners purified
# T3 construct: proteasome α subunit PsmA, Pyrococcus furiosus, locus PF1571, residues 1-260; proteasome β subunit 1 PsmB1 with its propeptide, Pyrococcus furiosus, locus PF0159, residues 1-196; non-tagged version; source: E. coli BL21(DE3), co-expressed, purified (heat precipitation at 85°C, HiTrap Q HP, Sephacryl S-400); copies: 14 + 14
# T3 sequence (looked up) 1: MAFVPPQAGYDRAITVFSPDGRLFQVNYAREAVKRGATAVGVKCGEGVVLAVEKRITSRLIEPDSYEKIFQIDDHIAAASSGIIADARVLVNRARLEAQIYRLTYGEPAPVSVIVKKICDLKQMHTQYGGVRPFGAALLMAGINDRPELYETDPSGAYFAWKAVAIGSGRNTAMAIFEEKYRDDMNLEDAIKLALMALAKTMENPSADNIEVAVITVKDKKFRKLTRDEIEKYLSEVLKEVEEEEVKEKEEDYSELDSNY
# T3 sequence (looked up) 2: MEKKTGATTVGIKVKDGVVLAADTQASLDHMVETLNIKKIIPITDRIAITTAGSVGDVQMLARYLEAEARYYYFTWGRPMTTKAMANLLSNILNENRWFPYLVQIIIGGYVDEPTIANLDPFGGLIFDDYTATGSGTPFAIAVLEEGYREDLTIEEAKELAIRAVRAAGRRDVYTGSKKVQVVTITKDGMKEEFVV
# [5] = target: the molecule itself; assay: crystal structure; non-tagged PbaB, 2.20 Å, space group C222(1), four molecules per asymmetric unit; 10% PEG10000, 100 mM Bis-Tris (pH 5.0), 50 mM sodium acetate, 5 mM NaAuCl4, 20°C
# [6] = target: B1; assay: SPR; Biacore T100, Sensor Chip NTA, 25°C; His6-tagged PbaB (wild type or CΔ3) immobilised; non-tagged mature (18.8-300 nM) or immature (18.5-296 nM) 20S proteasome or α subunit ring (15.4-246 nM) injected; 10 mM HEPES (pH 7.5), 150 mM NaCl, 0.05% Tween20; 10 μl/min; conditions: both partners purified
binder,measurement,setting,value
"His6-PbaA, Pyrococcus furiosus (natural protein, UniProt Q8U4Q9 1-242, looked up, PbaA, Pyrococcus furiosus, locus PF0015, residues 1-242; pET-28b (NdeI/XhoI); Pentamer in solution by sedimentation velocity; also called His6-tagged PbaA; PF0015; source: E. coli BL21(DE3), purified (Ni2+-chelating Sepharose, HiTrap Q HP, Superdex 200); not shown: His6, N-terminal, kept) MEEKKPVNLVLPEVENAIFIEGYPGVGLVGHIAANFLAKELDMDLIGYVDSLFIPPMSLILEGRPTPPLRFYGKNNIIIAIADIFLPPTLVNEIAKEIVNYLKKVNAEKVISLAGMGIGFFKDTFEVWGIGGSEEENKELESLGVKILKYGSITGMSGKLLWEASRAGLKSYVLLGETFGDRPDPRAAANVVEVLNKMLGLNVSVEPLLKEAEMIEEQLRRMHEQMEEARRKMERQYETMYL",stoichiometry N,[1],5
B1,"proteasomal degradation of human α-synuclein (18 μM) by 35 nM wild-type 20S proteasome with 105 nM PbaB, 95°C; fold acceleration by PbaB",[2],~2.5 fold
same,"proteasomal degradation of the fluorogenic nonapeptide LFP (10 μM) by 35 nM wild-type 20S proteasome with 175 nM PbaB, 45°C; fold acceleration by PbaB",[2],~3 fold
same,stoichiometry N,[1],4
same,Kd,[3],7.8 nM
same,Kd,[4],21 nM
"PbaB (non-tagged), Pyrococcus furiosus (natural protein, UniProt Q8U1R3 1-280, looked up, PbaB, Pyrococcus furiosus, locus PF1142, residues 1-280; Homotetramer in the crystal and by ultracentrifugation; Cloned into NdeI/XhoI of pET-28b; also called non-tagged PbaB; PF1142; source: E. coli BL21(DE3), purified (Ni2+-chelating Sepharose, thrombin cleavage of the His6-tag, HiTrap Q HP, Superdex 200); not shown: His6, N-terminal, cleaved) MEEGGTRNREEGKMKETTIVVYERPDIYDPIFIEGLPGIGLVGKLAAEHLIQELKAKKFAELYSPHFMHQVLIRKNSVVELMKNEFYYWKSPDDEHRDLIIVTGDTQVPPTDSYGHFEVAGKMLDFVQEFGTREIITMGGYQVPEIQGEPRVLAAVTHEDLIEYYKSKLEGCSVEVIWREDEGGAIVGAAGLLLGIGKLRGMFGISLLGESLGYIVDAKAAKAVLSAVTKILGLEIDMTALDERAKETEEILRKVEEMQRAMMEQVTPKLPHEEEDRGYL",stoichiometry N,[5],4
"non-tagged double homoheptameric ring of the proteasome α subunit, Pyrococcus furiosus (complex, UniProt Q8U0L6 1-260, looked up, proteasome α subunit PsmA, Pyrococcus furiosus, locus PF1571, residues 1-260; also called α subunit ring; source: E. coli BL21(DE3), purified (same procedure as the non-tagged 20S proteasome mutants); copies: 14) MAFVPPQAGYDRAITVFSPDGRLFQVNYAREAVKRGATAVGVKCGEGVVLAVEKRITSRLIEPDSYEKIFQIDDHIAAASSGIIADARVLVNRARLEAQIYRLTYGEPAPVSVIVKKICDLKQMHTQYGGVRPFGAALLMAGINDRPELYETDPSGAYFAWKAVAIGSGRNTAMAIFEEKYRDDMNLEDAIKLALMALAKTMENPSADNIEVAVITVKDKKFRKLTRDEIEKYLSEVLKEVEEEEVKEKEEDYSELDSNY",Kd,[6],330 nM
